Where no end group is shown, it is not given here.
Target: T1, H558-YFPf (human, UniProt Q14524 538-577)
T1 construct: Expressed in HEK293 cells; also called hNav1.5 protein fragment centered on H558 fused to YFP; not shown: enhanced yellow fluorescent protein from the pEYFP-N3 vector
Assay: three-channel FRET normalized to CFP, fragments coexpressed in HEK293 cells
Text: Three-channel FRET ratios were normalized to CFP and reported as FRETc as previously described by Vanderklish and colleagues, Proc Natl Acad Sci USA. 2000; 97:2253-2258. […] In all experiments, FRET was absent from the cell membrane, which is consistent with the inability of these protein fragments to traffic to the membrane. […] More importantly, hNav1.5 interaction occurs preferentially when 1 protein expresses R558 and the other expresses H558.

B1: R558-CFPf (other, human, UniProt Q14524 538-577, looked up)
chain: GSEADFADDENSTAGESESHRTSLLVPWPLRRTSAQGQPS
modifications: also: fused to CFP, linker and end not given here
notes: Expressed in HEK293 cells; not shown: enhanced cyan fluorescent protein from the pECFP-N3 vector
- fold increase in FRETc compared with the homotypic FRETc values: 3 fold
